Assays:
[1] = target: T1, Tie1-EpoR chimeric receptor (UniProt P14753+P35590); experiment: Ba/F3 bioassay (Tie1/EpoR chimeric BaF3 cell assay), MTT viability; format: cell-based, human; conditions: for survival/viability of Tie1-EpoR Ba/F3 cells: antibody alone, no IL-3
T1 construct: the PCR amplified extracellular part of human Tie1 (bp 37-2316 of X60975); expressed in transfected cells
T1 sequence (P35590+P14753 with tags, fused parts or gaps): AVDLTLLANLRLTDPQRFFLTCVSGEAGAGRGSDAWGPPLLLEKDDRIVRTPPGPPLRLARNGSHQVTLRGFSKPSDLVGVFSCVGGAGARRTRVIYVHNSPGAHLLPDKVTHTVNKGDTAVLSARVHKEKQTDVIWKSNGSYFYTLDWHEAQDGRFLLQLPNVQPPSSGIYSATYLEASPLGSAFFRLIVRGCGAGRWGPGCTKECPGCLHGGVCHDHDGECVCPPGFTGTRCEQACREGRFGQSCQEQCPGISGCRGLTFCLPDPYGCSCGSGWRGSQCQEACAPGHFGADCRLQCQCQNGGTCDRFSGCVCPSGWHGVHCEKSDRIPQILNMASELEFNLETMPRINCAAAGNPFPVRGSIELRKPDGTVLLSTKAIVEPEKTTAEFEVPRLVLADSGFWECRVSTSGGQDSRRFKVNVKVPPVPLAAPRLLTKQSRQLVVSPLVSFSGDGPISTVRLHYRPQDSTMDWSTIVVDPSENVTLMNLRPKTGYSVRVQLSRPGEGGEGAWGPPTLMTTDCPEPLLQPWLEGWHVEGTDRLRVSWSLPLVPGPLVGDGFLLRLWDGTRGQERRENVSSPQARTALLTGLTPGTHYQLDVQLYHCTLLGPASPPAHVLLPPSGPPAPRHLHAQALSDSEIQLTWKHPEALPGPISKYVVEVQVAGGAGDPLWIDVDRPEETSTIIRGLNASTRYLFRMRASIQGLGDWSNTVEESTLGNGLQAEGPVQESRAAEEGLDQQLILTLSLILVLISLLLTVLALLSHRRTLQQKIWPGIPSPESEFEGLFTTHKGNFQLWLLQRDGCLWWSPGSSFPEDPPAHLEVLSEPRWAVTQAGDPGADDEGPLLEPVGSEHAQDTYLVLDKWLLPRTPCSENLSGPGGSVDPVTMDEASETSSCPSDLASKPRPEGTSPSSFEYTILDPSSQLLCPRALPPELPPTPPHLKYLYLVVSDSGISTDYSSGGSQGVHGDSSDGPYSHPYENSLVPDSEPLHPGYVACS
Procedure, shortened: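 Ba/F3 cells expressing human Tie1 extracellular domain fused to mouse EpoR transmembrane/cytoplasmic domains, seeded at 50 000 cells/well with anti-Tie1 antibodies for 48 h. Non-expressing Zeocin-resistant pools served as controls. Survival read by MTT (0.5 mg/ml, 2 h), SDS/HCl lysis overnight at 37 °C, absorbance at 540 nm.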

[2] = target: T2, mouse Tie1 (Mus musculus, UniProt Q06806); experiment: Flow cytometry binding to mouse endothelial cell lines; conditions: MS1, Le-2, Bend3, SVEC and Tie-1 transfected Le-2 cells; biotinylated antibody
T2 construct: host or cells: mouse endothelial cell lines MS1, Le-2, Bend3, SVEC
Procedure: Specific binding of the Tie-1 antibodies and of control Mabs to mouse endothelial cells was measured by flow cytometry analysis (FACSscan, Becton Dickinson, Oxnard, Epics, Coulter). Mouse endothelial cell lines MS1, Le-2, Bend3, SVEC (ATCC, Rockville) and Tie-1 transfected Le-2 cells were stained. Cell staining was modified from existing protocols. About 200,000 cells were used in each experiment: after trypsinization, cells were washed one time in PBS and resuspended PBS, 10% Heat inactivated human serum (incubation buffer). To test specificity, antibodies were incubated at different dilutions for 1 h at room temperature. Cells were spun down by centrifugation for 3 min at 611 g. Between incubations cells were washed twice with PBS. […] After the final incubation step bound antibodies were detected by means of flow cytometry on a FACSCan and Epics Altra (Becton Dickinson, Oxnard, Coulter) and results analyzed.
Intracellular Tie-1 was measured as described above, except for the addition of Saponin to the incubation buffer to a final concentration of 0.1% during incubations. […] The binding pattern in mouse cell lines detected by flow cytometry is different from the binding pattern in HUVEC in that in mouse cells there is a greater cell surface staining than that compared to primary human endothelial cell lines.

T2 sequence (Q06806 23-1134): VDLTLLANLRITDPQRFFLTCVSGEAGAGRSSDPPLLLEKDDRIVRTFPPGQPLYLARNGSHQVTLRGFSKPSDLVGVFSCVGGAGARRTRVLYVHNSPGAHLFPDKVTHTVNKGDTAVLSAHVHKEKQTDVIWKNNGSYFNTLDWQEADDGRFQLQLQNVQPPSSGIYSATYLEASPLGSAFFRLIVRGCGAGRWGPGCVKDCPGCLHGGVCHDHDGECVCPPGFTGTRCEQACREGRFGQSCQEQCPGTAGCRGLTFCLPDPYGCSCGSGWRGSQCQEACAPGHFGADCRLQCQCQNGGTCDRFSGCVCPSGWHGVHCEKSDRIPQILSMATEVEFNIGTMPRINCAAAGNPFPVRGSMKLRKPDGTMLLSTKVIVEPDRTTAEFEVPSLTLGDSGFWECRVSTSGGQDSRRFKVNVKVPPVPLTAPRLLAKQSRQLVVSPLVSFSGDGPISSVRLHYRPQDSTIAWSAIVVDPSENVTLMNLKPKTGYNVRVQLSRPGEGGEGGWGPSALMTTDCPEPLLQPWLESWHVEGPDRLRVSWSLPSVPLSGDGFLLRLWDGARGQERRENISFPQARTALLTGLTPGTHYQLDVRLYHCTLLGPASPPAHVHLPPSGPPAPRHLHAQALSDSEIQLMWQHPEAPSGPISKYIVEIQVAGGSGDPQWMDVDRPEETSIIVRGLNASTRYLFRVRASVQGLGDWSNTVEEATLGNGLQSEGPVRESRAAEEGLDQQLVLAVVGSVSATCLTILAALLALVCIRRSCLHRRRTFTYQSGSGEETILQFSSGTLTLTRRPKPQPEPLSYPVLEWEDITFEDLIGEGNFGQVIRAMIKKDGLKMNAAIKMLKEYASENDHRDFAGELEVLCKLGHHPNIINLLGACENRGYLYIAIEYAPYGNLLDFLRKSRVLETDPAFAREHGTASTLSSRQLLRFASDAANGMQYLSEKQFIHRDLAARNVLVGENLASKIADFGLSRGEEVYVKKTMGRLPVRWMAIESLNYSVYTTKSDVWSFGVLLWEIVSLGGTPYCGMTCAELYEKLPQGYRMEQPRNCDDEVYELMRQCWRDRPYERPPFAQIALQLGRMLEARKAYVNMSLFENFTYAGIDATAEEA

B1: E3: human anti-Tie1 antibody from Fab phage library; HC SEQ ID NO:114, LC SEQ ID NO:116 (antibody, V domains shown)
VH: EVQLLESGGGLVQPGGSLRLSCAASGFTFSMYGMVWVRQAPGKGLEWVSVISPSGGNTGYADSVKGRFTISRDNSKNTLYLQVNSLRAEDTAVYYCARAPRGYSYGYYYWGQGTLVTVSSASTKGPSVFPLAPSSKSTSGG
VL: DIQMTQSPLSLSASVGDRVTITCRASQGIGHYLAWYQQKPGKVPKLLIYTASTLQSGVPSRFSGSGSGTDFTLTINSLQPEDVATYYCQQFNSYPHTFGQGTRLDIK
modifications: Synthetically generated peptide
concentration giving almost maximal viability in Tie1-EpoR cell survival assays ([1]; Tie1-EpoR Ba/F3 cells): 50 ng/mL
Average MTT activity in BaF3 cell assay ([1]; Tie1-EpoR Ba/F3 cells, 48 h, absorbance 540 nm, E3 IgG 100 ng/ml together with 100 or 500 ng/ml of the other antibody): 0.61
survival/viability of Tie1-EpoR Ba/F3 cells [1]: functions as a Tie1 activating antibody
survival/viability of Tie1-EpoR Ba/F3 cells ([1]; listed as E3 IgG): able to promote survival
viability of EpoR Ba/F3 cells used as a control ([1]; control cells not expressing Tie1-EpoR): not affected
binding to mouse endothelial cell lines [2]: binds to mouse endothelial cell lines

Source: US7871610B2, “Antibodies to Tie1 ectodomain” (Dyax Corp., priority 2003, dated 2011)
